Reference: patent US6713276B2, “Modulation of Aβ levels by β-secretase BACE2” (Scios, Inc., priority 2000, dated 2004)

Legend:
APP751wt = assay: cell-free β-secretase assay, β-NTF ELISA, APP751wt substrate; format: biochemical, human; conditions: membrane extracts of transfected HEK293 cells, incubation up to 8 hours
Experimental: The β-secretase assay consists of two different parts, an incubation or reaction phase to generate β-NTF and an ELISA part to capture and measure the β-NTF generated by β-secretase. The β-secretase ELISA was performed as follows. Each well of a 96 well plate containing a flat bottom (high protein binding, Corning, N.Y.) was coated with 100 μl of the monoclonal capture antibody 8E5 (at ˜8-10 μg/ml) (Johnson-Wood et al. Proc. Natl. Acad. Sci. USA 94: 1550-1555 [1997]). The plate was then covered with parafilm and incubated overnight at 4° C. or alternatively for 2 hours at 37° C. […]
One hundred μl of a 1:5000 dilution of a goat anti rabbit IgG-HRP in Antibody-Conjugate Buffer was then added to each well, and the plate incubated at room temperature for one hour. […] After sufficient blue color had developed, the reactions were stopped by adding 100 μl of 5N H2SO4 to each well, and the amount of βNTF was determined by reading the plate at 450 nm in a Softmax spectrophotometer.
Equal amounts of membrane extracts from either mock, BACE or BACE2 transfected HEK293 cells were incubated with partially purified full length APP751 sw or APP751wt for the indicated times. The formation of β-NTF was then determined using the respective β-NTF specific ELISA as described in General Methodology.

[1] = test system: APP751sw processing in HEK293T cells; assay: pulse-chase / pulse-labeling and immunoprecipitation of APP CTFs, Aβ and p3 in HEK293T cells; format: cell-based, human
Experimental: Forty eight hours post-transfection, HEK293T cells were labeled for 15 minutes with 200 μCi Promix L [^35S] in vitro cell labeling mix (Amersham) and chased for up to 90 minutes according to standard procedures. APP CTFs were immunoprecipitated with antibodies 369 (Cai et al., Science 259: 514-516 [1993]). For immunoprecipitations of Aβ and p3 from conditioned medium, HEK293T cells were labeled for 5 hours with 300 μCi Promix L [^35S] in vitro cell labeling mix (Amersham) 48 hours post-transfection. Aβ40 and Aβ42 as well as the corresponding p3 species were immunoprecipitated with monoclonal antibodies 1702.1 and 108.1, respectively (Higaki et al., J. Med. Chem. 42: 3889-3898 [1999]).
To analyze the metabolism of APP as a consequence of BACE or BACE2 overexpression we performed a parallel pulse-chase experiment (FIG. 2e). HEK293T cells transfected as above were pulse-labeled and chased for up to 90 minutes and APP and CTFs were immunoprecipitated. […] An alternative β-secretase related cleavage product (β′-CTF) was also formed consistent with previous reports (Vassar et al., Science [1999] ibid; Higaki et al., Neuron 14: 651-659 [1995]). Consistent with its β-secretase activity, BACE2 overexpression led to a significant initial increase in β-CTF levels compared to mock-transfected cells. […] In general, BACE2 might have increased the overall APP turnover. To determine whether BACE affected γ-secretase activity, we determined whether p3 could be formed. We transfected HEK293 cells as in FIG. 2e and labeled them for 5 hours with Promix L [^35S]. Aβ from conditioned medium was then precipitated with antibodies directed against the C-terminal residues of Aβ40 and Aβ42, respectively, that also recognize p3 (FIG. 2f). […] Taken together, BACE2 expression leads to alternative processing of APP that precludes Aβ formation.

[2] = HEK293 cells, labeled for 5 hours, conditioned medium

B1: BACE2: human aspartyl protease, close homolog of BACE (SEQ ID NO: 2), expressed from pcDNA3.1(−)/BACE2 in transfected cells (protein)
chain: MGALARALLLPLLAQWLLRAAPELAPAPFTLPLRVAAATNRVVAPTPGPGTPAERHADGLALALEPALASPAGAANFLAMVDNLQGDSGRGYYLEMLIGTPPQKLQILVDTGSSNFAVAGTPHSYIDTYFDTERSSTYRSKGFDVTVKYTQGSWTGFVGEDLVTIPKGFNTSFLVNIATIFESENFFLPGIKWNGILGLAYATLAKPSSSLETFFDSLVTQANIPNVFSMQMCGAGLPVAGSGTNGGSLVLGGIEPSLYKGDIWYTPIKEEWYYQIEILKLEIGGQSLNLDCREYNADKAIVDSGTTLLRLPQKVFDAVVEAVARASLIPEFSDGFWTGSQLACWTNSETPWSYFPKISIYLRDENSSRSFRITILPQLYIQPMMGAGLNYECYRFGISPSTNALVIGATVMEGFYVIFDRAQKRVGFAASPCAEIAGAAVSEISGPFSTEDVASNCVPAQSLSEPILWIVSYALMSVCGAILLVLIVLLLLPFRCQRRPRDPEVVNDESSLVRHRWK
APP751wt
  β-NTF formation (β-secretase cleavage in vitro): cleaved APP751wt to a similar extent as BACE
[1]; HEK293T, APP751sw, 15 min pulse, chase up to 90 minutes
  APP CTF turnover (β-CTF, β′-CTF, α-CTF): strong accumulation of a cleavage product that based on size and gel migration corresponded to α-CTF
[1]; [2]
  formation of Aβ40 and Aβ42 (immunoprecipitation): interfered with the formation of both Aβ40 and Aβ42
  p3 formation: p3 levels were not significantly affected
